# Measured values from article PMC6437178.
# Target: engineered Salmo salar Ctr1 crystallization construct sCtr1_(cryst) (Salmo salar | not stated)
# Test: crystal structure; hanging-drop vapor diffusion at 20 °C; 26-28% PEG 400, 50 mM zinc acetate, 50 mM sodium cacodylate pH 5.9; protein in CYMAL-5; Cu^+-free (3.0 Å) and Cu^+-bound (3.2 Å) states; trimer on the crystallographic three-fold axis
substance,measurement,value
engineered Salmo salar Ctr1 crystallization construct sCtr1_(cryst) (from UniProt A0A1S3KYH5 41-93; A0A1S3KYH5 121-184),stoichiometry N,3
